Holding throughout (test): cell-based or functional assay
The target in assay [1] is BTK (h) (human (h), UniProt Q06187 1-659).
Assay [2] addresses CaMKI (h) (human (h), UniProt Q14012 1-370, limits assumed).
Assay [3] deals with CDKI/cyclinB (h) (human (h), UniProt P06493 1-297).
In assay [4] the target is T1, DYRK2 (h) (human (h), UniProt Q92630 1-601, limits assumed).
T1 sequence (looked up): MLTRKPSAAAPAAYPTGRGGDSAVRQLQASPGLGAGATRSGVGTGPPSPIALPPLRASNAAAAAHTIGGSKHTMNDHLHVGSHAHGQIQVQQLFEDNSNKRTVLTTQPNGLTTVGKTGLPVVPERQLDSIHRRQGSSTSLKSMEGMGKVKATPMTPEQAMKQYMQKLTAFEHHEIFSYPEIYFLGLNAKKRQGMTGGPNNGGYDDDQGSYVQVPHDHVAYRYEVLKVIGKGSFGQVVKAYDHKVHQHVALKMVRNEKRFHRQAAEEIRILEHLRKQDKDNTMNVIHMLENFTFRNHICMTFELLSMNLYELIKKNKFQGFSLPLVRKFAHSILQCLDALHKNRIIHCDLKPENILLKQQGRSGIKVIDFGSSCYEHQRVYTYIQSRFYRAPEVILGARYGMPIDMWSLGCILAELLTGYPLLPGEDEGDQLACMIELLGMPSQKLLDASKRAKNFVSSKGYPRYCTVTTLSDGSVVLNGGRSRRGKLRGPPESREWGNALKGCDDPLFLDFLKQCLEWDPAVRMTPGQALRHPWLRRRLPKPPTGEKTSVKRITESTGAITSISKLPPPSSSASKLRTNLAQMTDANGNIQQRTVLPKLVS

Assay [5] deals with T2, IRAK4 (h) (human (h), UniProt Q9NWZ3 1-460, limits assumed).
T2 sequence (looked up): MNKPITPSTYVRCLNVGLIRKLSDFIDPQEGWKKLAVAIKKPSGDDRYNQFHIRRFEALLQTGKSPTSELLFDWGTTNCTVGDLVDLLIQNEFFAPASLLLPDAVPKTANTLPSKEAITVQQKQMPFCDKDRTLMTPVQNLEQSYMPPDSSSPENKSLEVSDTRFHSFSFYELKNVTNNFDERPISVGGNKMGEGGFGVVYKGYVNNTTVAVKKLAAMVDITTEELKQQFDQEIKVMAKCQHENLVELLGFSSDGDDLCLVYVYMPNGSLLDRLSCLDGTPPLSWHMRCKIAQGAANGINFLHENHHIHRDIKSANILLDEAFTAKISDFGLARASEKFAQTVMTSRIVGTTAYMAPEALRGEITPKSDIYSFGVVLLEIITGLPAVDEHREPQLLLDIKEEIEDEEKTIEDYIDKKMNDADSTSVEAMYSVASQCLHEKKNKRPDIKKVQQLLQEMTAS

The target in assay [6] is L1MK1 (h) (human (h), UniProt P53667 285-638, limits assumed).
Chain of L1MK1 (h) (P53667 285-638 limits assumed): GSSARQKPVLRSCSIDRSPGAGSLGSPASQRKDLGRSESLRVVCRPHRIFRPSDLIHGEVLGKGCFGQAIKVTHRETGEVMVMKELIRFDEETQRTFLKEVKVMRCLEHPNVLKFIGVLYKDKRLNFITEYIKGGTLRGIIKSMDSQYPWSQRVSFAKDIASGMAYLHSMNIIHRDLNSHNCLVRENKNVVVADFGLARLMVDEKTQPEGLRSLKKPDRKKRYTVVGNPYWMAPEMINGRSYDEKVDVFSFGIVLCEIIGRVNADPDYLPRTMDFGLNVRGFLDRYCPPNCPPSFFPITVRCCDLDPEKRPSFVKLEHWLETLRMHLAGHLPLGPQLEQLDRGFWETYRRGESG
Assay [7] addresses MAPKAP-K2 (h) (human (h), UniProt P49137 46-400, limits assumed).
Assay [8] addresses MEKI (h) (human (h), UniProt Q02750 1-393).
The target of assay [9] is T3, MKK4 (m) (mouse (m), UniProt P47809 35-397, limits assumed).
T3 sequence (looked up): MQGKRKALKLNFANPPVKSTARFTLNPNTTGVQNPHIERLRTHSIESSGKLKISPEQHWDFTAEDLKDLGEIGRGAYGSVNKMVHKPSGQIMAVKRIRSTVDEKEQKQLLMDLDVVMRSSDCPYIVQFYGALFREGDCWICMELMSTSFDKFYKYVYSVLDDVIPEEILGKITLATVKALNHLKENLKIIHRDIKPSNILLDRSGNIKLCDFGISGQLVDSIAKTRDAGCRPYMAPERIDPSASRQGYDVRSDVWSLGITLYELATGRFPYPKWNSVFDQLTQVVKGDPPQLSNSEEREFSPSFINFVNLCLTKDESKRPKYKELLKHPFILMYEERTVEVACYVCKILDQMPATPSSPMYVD

The target in assay [10] is MSK1 (h) (human (h), UniProt O75582 1-802).
Chain of MSK1 (h) (O75582 whole entry): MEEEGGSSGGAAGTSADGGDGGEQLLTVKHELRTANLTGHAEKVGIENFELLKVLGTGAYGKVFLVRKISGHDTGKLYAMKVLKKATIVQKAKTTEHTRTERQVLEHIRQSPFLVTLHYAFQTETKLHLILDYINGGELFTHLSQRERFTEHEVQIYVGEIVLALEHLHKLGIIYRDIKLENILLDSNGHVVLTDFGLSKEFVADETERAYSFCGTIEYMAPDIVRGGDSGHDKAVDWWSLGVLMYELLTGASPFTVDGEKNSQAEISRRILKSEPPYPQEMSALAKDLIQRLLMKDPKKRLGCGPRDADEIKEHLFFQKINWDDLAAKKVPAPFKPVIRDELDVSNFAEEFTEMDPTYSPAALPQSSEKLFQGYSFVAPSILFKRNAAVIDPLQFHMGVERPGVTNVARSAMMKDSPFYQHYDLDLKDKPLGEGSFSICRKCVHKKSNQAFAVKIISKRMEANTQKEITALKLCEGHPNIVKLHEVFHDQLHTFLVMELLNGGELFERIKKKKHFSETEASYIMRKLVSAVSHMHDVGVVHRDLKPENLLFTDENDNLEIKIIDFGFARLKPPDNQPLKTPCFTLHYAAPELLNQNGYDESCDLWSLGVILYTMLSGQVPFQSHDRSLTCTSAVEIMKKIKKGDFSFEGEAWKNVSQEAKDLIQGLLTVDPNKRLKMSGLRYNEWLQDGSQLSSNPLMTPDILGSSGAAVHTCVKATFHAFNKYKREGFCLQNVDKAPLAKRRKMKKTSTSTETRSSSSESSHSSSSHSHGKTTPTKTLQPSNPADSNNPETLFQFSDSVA
Assay [11] concerns the target PDGFRβ (h) (human (h), UniProt P09619 558-1106, limits assumed).
The target in assay [12] is Pim-1 (h) (human (h), UniProt P11309 1-313).
Chain of Pim-1 (h) (P11309 whole entry): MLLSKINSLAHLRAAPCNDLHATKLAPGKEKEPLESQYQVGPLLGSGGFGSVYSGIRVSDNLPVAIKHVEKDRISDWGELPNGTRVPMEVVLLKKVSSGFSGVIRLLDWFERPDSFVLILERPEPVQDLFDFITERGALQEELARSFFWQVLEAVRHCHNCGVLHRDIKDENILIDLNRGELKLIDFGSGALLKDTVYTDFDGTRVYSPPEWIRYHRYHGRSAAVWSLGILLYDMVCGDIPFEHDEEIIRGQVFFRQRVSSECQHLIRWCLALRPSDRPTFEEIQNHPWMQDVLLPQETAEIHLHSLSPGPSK
The target in assay [13] is PKB β (h) (human (h), UniProt P31751 1-481, limits assumed).
Chain of PKB β (h) (P31751 whole entry): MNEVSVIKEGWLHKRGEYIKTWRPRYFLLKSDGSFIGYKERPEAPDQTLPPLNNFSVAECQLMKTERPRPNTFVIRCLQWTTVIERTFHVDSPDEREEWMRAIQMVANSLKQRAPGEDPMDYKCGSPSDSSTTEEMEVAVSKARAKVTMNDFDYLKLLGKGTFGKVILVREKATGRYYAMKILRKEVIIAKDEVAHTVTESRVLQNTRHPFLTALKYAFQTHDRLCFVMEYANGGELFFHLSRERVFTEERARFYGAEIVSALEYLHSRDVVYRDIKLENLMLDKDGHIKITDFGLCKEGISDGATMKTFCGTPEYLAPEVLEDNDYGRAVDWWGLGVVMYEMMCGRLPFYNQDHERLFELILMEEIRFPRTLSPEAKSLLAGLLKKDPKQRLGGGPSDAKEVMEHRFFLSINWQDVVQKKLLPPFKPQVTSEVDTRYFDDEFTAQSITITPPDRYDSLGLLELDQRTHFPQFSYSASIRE
Assay [14] deals with T4, PKG1β (h) (human (h), UniProt Q13976-2 1-686).
T4 sequence (looked up): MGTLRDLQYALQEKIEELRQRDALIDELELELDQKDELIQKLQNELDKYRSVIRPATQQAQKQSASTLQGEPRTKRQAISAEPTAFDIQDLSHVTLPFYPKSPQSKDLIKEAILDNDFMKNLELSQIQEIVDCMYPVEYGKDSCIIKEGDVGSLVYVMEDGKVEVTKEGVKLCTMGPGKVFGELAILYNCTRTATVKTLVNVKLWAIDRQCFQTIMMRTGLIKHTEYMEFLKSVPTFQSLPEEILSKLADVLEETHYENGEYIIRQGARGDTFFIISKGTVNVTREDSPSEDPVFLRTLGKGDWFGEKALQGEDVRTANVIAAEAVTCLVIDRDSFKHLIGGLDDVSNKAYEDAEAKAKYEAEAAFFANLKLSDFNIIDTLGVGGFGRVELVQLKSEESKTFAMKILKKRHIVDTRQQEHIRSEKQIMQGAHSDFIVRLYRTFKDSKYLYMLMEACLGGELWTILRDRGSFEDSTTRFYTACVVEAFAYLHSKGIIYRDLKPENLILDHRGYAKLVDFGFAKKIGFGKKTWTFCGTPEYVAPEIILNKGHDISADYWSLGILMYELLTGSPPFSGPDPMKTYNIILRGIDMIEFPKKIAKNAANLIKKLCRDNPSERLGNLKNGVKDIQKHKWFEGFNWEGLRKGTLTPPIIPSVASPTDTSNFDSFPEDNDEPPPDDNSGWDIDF

One molecule from patent publication US20090149389A1 (PURDUE RESEARCH FOUNDATION, published 2009) can be followed below.

Chain of CDKI/cyclinB (h) (P06493 whole entry): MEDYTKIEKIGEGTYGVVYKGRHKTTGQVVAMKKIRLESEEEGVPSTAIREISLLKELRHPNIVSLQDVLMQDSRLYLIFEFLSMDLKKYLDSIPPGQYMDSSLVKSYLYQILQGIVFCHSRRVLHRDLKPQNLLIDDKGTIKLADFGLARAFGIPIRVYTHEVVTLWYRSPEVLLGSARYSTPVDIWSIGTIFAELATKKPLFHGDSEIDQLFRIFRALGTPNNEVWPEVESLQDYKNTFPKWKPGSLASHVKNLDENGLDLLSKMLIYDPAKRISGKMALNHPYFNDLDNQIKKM
Chain of MAPKAP-K2 (h) (P49137 46-400 limits assumed): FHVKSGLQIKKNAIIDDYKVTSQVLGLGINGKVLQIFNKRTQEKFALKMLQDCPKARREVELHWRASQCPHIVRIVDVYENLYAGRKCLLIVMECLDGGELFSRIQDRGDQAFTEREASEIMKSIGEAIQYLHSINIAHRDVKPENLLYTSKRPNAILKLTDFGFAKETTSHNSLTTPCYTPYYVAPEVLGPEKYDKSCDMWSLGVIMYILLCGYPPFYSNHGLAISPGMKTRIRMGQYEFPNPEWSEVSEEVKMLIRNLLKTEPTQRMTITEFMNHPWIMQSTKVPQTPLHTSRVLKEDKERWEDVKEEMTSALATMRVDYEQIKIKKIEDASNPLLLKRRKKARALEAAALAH
Chain of CaMKI (h) (Q14012 whole entry): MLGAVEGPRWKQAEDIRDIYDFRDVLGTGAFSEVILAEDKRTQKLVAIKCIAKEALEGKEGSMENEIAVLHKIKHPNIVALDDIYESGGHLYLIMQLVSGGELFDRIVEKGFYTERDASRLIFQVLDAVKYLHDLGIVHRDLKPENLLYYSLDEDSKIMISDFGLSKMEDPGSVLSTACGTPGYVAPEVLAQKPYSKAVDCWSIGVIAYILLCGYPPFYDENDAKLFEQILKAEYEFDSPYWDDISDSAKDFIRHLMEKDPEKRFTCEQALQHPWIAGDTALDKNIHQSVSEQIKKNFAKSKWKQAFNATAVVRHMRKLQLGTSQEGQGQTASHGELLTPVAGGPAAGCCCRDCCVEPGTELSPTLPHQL
Chain of PDGFRβ (h) (P09619 558-1106 limits assumed): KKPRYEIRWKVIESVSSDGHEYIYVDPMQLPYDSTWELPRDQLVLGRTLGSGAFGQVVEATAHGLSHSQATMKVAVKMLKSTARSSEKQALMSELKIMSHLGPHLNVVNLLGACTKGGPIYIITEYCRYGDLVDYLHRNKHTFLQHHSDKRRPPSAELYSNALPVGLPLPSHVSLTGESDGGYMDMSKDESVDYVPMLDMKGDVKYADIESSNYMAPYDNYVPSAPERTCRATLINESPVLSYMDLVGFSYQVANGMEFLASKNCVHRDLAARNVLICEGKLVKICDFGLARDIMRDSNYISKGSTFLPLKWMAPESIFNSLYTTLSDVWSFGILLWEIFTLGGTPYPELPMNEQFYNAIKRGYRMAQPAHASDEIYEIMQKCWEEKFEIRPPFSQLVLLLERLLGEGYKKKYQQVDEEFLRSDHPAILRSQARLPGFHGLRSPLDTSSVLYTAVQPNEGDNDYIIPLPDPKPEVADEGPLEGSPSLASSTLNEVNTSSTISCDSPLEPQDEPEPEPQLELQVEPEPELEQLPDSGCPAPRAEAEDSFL
Chain of BTK (h) (Q06187 whole entry): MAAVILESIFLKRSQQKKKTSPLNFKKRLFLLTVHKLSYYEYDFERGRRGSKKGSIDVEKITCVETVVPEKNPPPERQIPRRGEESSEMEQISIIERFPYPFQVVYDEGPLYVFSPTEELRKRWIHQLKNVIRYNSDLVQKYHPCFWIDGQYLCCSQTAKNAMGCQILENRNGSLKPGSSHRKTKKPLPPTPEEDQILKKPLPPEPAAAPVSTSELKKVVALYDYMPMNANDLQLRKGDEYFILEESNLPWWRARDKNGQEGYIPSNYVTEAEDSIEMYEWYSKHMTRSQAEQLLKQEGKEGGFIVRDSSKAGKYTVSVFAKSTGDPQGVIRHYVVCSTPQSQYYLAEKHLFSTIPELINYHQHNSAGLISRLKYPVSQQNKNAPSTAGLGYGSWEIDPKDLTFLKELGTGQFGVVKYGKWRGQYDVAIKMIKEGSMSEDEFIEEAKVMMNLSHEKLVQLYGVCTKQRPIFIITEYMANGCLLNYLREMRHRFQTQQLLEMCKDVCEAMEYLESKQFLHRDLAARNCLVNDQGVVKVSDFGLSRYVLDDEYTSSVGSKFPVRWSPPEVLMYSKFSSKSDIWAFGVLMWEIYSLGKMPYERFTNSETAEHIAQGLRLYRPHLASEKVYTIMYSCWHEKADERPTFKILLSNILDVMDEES

In the case of KAFAKLAARLYRKALARQLGVAA, the “Profile-1 @ = 100 µm (kinase profiler assay)” value (from here on “Profile-1 @ = 100 µm”) in assay [1] is 16; in assay [2], 0; in assay [3] it was 55; in assay [4], -10; in assay [5], 16; in [6], 93. Also, the “Profile-1 @ = 100 µm” value in [7] came to 8; in assay [8], 66; in [9], 114; in [10], 13; in [11] it was 66; in [12] it was 1. Also, the “Profile-1 @ = 100 µm” value in assay [13] stood at 28; in assay [14] it was 24.
